Source: patent US20210263001A1, “IMMOBILIZED ENZYMES AND MICROSOMES ON MAGNETIC SCAFFOLDS” (ZYMtronix Catalytic Systems, Inc., priority 2018, published 2021)

Target: T1, UGT1A6 (Homo sapiens, UniProt P19224)
T1 construct: purchased Corning 456416
T1 sequence (P19224 27-532): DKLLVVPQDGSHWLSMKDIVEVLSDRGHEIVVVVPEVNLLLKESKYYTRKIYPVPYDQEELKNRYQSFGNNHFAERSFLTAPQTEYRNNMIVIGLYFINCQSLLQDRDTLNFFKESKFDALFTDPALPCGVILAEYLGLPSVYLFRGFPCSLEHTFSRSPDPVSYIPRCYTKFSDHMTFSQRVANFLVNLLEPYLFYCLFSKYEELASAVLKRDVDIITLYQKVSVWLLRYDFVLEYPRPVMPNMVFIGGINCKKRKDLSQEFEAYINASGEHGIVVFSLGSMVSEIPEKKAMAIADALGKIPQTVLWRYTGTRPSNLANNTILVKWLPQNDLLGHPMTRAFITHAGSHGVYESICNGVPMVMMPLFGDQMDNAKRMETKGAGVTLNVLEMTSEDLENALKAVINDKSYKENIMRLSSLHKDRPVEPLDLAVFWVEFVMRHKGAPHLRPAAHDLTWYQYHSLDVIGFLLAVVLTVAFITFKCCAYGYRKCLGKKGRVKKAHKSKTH
Assay: Activity of UGT1A6 immobilized on magnetite powder, BioVision fluorometric UGT activity assay (Example 10)
Type: biochemical
Conditions: 2 hours, 37° C., 500 μl reaction
Method: The UGT1A6 stock (5 mg/mL) was rapidly thawed in a […] and diluted in cold 50 mM Tris pH 7.0 to a final concentration of 25 μg/ml. 500 μl of UGT1A6 solution was added to 5 mg of magnetite powder and incubated for 1 hour at 4° C. with shaking. The immobilization yield was quantified by the Bradford method (Bradford reagent: Quick Start™ Bradford 1× Dye Reagent #5000205 from BioRad) by comparing it to UGT1A6 enzyme standards.
A fluorometric assay (BioVision UGT Activity Assay/Ligand Screening Kit, Cat #K692) was used to measure the activity of the free and immobilized UGT1A6. The assay utilizes a highly fluorescent UGT substrate and measures UGT activity by tracking the drop in fluorescence emission as the substrate is converted into a non-fluorescent glucuronide. UGT specific activity is calculated by comparing the fluorescence loss versus a control reaction performed in the absence of the required cofactor UDPGA. Duplicate reactions were performed in 0.5 dram glass vials (VWR® Vials, Borosilicate Glass, with Phenolic Screw Cap) with 500 μl reaction volumes at 37° C. with shaking for 2 hours. UGT1A6 reactions contained BioVision UGT Assay buffer with Alamethicin, BioVision UGT subtrate and the UDPGA cofactor. […] The product was detected by fluorescence at Ex/Em=415/502 nm and quantitated by comparing the drop in fluorescence to a standard curve of UGT substrate fluorescence.

BioVision UGT Activity Assay substrate consumed (average): 0.58 ± 0.39 nmol
B1: free UGT: Non-immobilized Corning Supersomes Human UGT1A6 enzyme (protein, UniProt P19224 27-532, looked up)
UDP-glucuronosyltransferase …: T1 sequence (P19224 27-532)
modifications: Supersomes microsomal preparation
notes: Non-immobilized Corning Supersomes Human UGT1A6 enzyme
